Read-outs that look alike come from different tables or passages of the source. Starred links: 1 amine or outer side, 2 acyl side, 3 side chain; linkers in the order of their positions; H or OH if unused. Non-standard residues stand in square brackets, D forms with d. Groups on a side chain read outwards from the residue. No end group written: not given here. *: point of attachment. C20 diacid = O=C(O)CCCCCCCCCCCCCCCCCCC(=O)*; γGlu = O=C(O)[C@H](CCC(=O)[*:2])N[*:1]; αMeL = CC(C)C[C@](C)(N)C(=O)O; αMeK = C[C@](N)(CCCCN)C(=O)O; Iva = CC[C@](C)(N)C(=O)O; AEEA = NCCOCCOCC(=O)O; Aib = CC(C)(N)C(=O)O
T1: human glucose-dependent insulinotropic polypeptide receptor (human, UniProt P48546 22-466)
T1 sequence (looked up): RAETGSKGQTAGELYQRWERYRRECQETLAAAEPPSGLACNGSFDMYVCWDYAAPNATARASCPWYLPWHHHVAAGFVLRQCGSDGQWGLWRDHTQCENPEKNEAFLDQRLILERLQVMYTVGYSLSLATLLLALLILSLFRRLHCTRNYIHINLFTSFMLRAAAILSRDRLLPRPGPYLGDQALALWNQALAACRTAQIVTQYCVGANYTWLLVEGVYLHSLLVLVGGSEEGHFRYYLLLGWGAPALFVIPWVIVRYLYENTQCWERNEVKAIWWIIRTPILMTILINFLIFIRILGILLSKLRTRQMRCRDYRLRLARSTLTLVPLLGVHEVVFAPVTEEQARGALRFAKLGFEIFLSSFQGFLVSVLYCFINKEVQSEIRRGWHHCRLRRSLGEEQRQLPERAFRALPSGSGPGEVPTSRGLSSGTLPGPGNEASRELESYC

B1: Compound No. 0108 (peptide)
peptide: H[Aib]HGTFTSDYSKY[αMeL]EK([AEEA-AEEA-γGlu-C20 diacid])KAAQEFVEWLLAGGPSSGAPPPS-NH2
modifications: N-terminus assumed
SMILES: CC(C)C[C@H](NC(=O)[C@H](CC(C)C)NC(=O)[C@H](Cc1c[nH]c2ccccc12)NC(=O)[C@H](CCC(=O)O)NC(=O)[C@@H](NC(=O)[C@H](Cc1ccccc1)NC(=O)[C@H](CCC(=O)O)NC(=O)[C@H](CCC(N)=O)NC(=O)[C@H](C)NC(=O)[C@H](C)NC(=O)[C@H](CCCCN)NC(=O)[C@H](CCCCNC(=O)COCCOCCNC(=O)COCCOCCNC(=O)CC[C@H](NC(=O)CCCCCCCCCCCCCCCCCCC(=O)O)C(=O)O)NC(=O)[C@H](CCC(=O)O)NC(=O)[C@](C)(CC(C)C)NC(=O)[C@H](Cc1ccc(O)cc1)NC(=O)[C@H](CCCCN)NC(=O)[C@H](CO)NC(=O)[C@H](Cc1ccc(O)cc1)NC(=O)[C@H](CC(=O)O)NC(=O)[C@H](CO)NC(=O)[C@@H](NC(=O)[C@H](Cc1ccccc1)NC(=O)[C@@H](NC(=O)CNC(=O)[C@H](Cc1c[nH]cn1)NC(=O)C(C)(C)NC(=O)[C@@H](N)Cc1c[nH]cn1)[C@@H](C)O)[C@@H](C)O)C(C)C)C(=O)N[C@@H](C)C(=O)NCC(=O)NCC(=O)N1CCC[C@H]1C(=O)N[C@@H](CO)C(=O)N[C@@H](CO)C(=O)NCC(=O)N[C@@H](C)C(=O)N1CCC[C@H]1C(=O)N1CCC[C@H]1C(=O)N1CCC[C@H]1C(=O)N[C@@H](CO)C(N)=O
B2: Compound No. 0134 (peptide)
peptide: H[Aib]HGTFTSDLS[αMeK]ILEK([AEEA-AEEA-γGlu-C20 diacid])KAA[Iva]EFVEWLIEGGPSSGAPPPS-NH2
modifications: N-terminus assumed
SMILES: CC[C@H](C)[C@H](NC(=O)[C@H](CC(C)C)NC(=O)[C@H](Cc1c[nH]c2ccccc12)NC(=O)[C@H](CCC(=O)O)NC(=O)[C@@H](NC(=O)[C@H](Cc1ccccc1)NC(=O)[C@H](CCC(=O)O)NC(=O)[C@](C)(CC)NC(=O)[C@H](C)NC(=O)[C@H](C)NC(=O)[C@H](CCCCN)NC(=O)[C@H](CCCCNC(=O)COCCOCCNC(=O)COCCOCCNC(=O)CC[C@H](NC(=O)CCCCCCCCCCCCCCCCCCC(=O)O)C(=O)O)NC(=O)[C@H](CCC(=O)O)NC(=O)[C@H](CC(C)C)NC(=O)[C@@H](NC(=O)[C@](C)(CCCCN)NC(=O)[C@H](CO)NC(=O)[C@H](CC(C)C)NC(=O)[C@H](CC(=O)O)NC(=O)[C@H](CO)NC(=O)[C@@H](NC(=O)[C@H](Cc1ccccc1)NC(=O)[C@@H](NC(=O)CNC(=O)[C@H](Cc1c[nH]cn1)NC(=O)C(C)(C)NC(=O)[C@@H](N)Cc1c[nH]cn1)[C@@H](C)O)[C@@H](C)O)[C@@H](C)CC)C(C)C)C(=O)N[C@@H](CCC(=O)O)C(=O)NCC(=O)NCC(=O)N1CCC[C@H]1C(=O)N[C@@H](CO)C(=O)N[C@@H](CO)C(=O)NCC(=O)N[C@@H](C)C(=O)N1CCC[C@H]1C(=O)N1CCC[C@H]1C(=O)N1CCC[C@H]1C(=O)N[C@@H](CO)C(N)=O
B3: Compound No. 0109 (peptide)
peptide: H[Aib]HGTFTSDYSKYLEK([AEEA-AEEA-γGlu-C20 diacid])[αMeK]AAQEFVEWLLAGGPSSGAPPPS-NH2
modifications: N-terminus assumed
SMILES: CC(C)C[C@H](NC(=O)[C@H](CC(C)C)NC(=O)[C@H](Cc1c[nH]c2ccccc12)NC(=O)[C@H](CCC(=O)O)NC(=O)[C@@H](NC(=O)[C@H](Cc1ccccc1)NC(=O)[C@H](CCC(=O)O)NC(=O)[C@H](CCC(N)=O)NC(=O)[C@H](C)NC(=O)[C@H](C)NC(=O)[C@](C)(CCCCN)NC(=O)[C@H](CCCCNC(=O)COCCOCCNC(=O)COCCOCCNC(=O)CC[C@H](NC(=O)CCCCCCCCCCCCCCCCCCC(=O)O)C(=O)O)NC(=O)[C@H](CCC(=O)O)NC(=O)[C@H](CC(C)C)NC(=O)[C@H](Cc1ccc(O)cc1)NC(=O)[C@H](CCCCN)NC(=O)[C@H](CO)NC(=O)[C@H](Cc1ccc(O)cc1)NC(=O)[C@H](CC(=O)O)NC(=O)[C@H](CO)NC(=O)[C@@H](NC(=O)[C@H](Cc1ccccc1)NC(=O)[C@@H](NC(=O)CNC(=O)[C@H](Cc1c[nH]cn1)NC(=O)C(C)(C)NC(=O)[C@@H](N)Cc1c[nH]cn1)[C@@H](C)O)[C@@H](C)O)C(C)C)C(=O)N[C@@H](C)C(=O)NCC(=O)NCC(=O)N1CCC[C@H]1C(=O)N[C@@H](CO)C(=O)N[C@@H](CO)C(=O)NCC(=O)N[C@@H](C)C(=O)N1CCC[C@H]1C(=O)N1CCC[C@H]1C(=O)N1CCC[C@H]1C(=O)N[C@@H](CO)C(N)=O
B4: Compound No. 0135 (peptide)
peptide: H[Aib]HGTFTSDYSILLEK([AEEA-AEEA-γGlu-C20 diacid])KAA[Iva]EFVEWLLAGGPSSGAPPPS-NH2
B5: Compound No. 0110 (peptide)
peptide: H[Aib]HGTFTSDYSKYLEK([AEEA-AEEA-γGlu-C20 diacid])K[Aib]AQEFVEWLLAGGPSSGAPPPS-NH2
modifications: N-terminus assumed
SMILES: CC(C)C[C@H](NC(=O)[C@H](CC(C)C)NC(=O)[C@H](Cc1c[nH]c2ccccc12)NC(=O)[C@H](CCC(=O)O)NC(=O)[C@@H](NC(=O)[C@H](Cc1ccccc1)NC(=O)[C@H](CCC(=O)O)NC(=O)[C@H](CCC(N)=O)NC(=O)[C@H](C)NC(=O)C(C)(C)NC(=O)[C@H](CCCCN)NC(=O)[C@H](CCCCNC(=O)COCCOCCNC(=O)COCCOCCNC(=O)CC[C@H](NC(=O)CCCCCCCCCCCCCCCCCCC(=O)O)C(=O)O)NC(=O)[C@H](CCC(=O)O)NC(=O)[C@H](CC(C)C)NC(=O)[C@H](Cc1ccc(O)cc1)NC(=O)[C@H](CCCCN)NC(=O)[C@H](CO)NC(=O)[C@H](Cc1ccc(O)cc1)NC(=O)[C@H](CC(=O)O)NC(=O)[C@H](CO)NC(=O)[C@@H](NC(=O)[C@H](Cc1ccccc1)NC(=O)[C@@H](NC(=O)CNC(=O)[C@H](Cc1c[nH]cn1)NC(=O)C(C)(C)NC(=O)[C@@H](N)Cc1c[nH]cn1)[C@@H](C)O)[C@@H](C)O)C(C)C)C(=O)N[C@@H](C)C(=O)NCC(=O)NCC(=O)N1CCC[C@H]1C(=O)N[C@@H](CO)C(=O)N[C@@H](CO)C(=O)NCC(=O)N[C@@H](C)C(=O)N1CCC[C@H]1C(=O)N1CCC[C@H]1C(=O)N1CCC[C@H]1C(=O)N[C@@H](CO)C(N)=O

Legend:
Assay in all cases: cell-based or functional assay
[1] = target: T2, human glucagon-like peptide-1 receptor (human, UniProt P43220 24-463)
[2] = target: T1, human glucose-dependent insulinotropic …
human glucagon receptor [3] = target: T3, human glucagon receptor (human, UniProt P47871 26-477)
T3 sequence (P47871 26-477): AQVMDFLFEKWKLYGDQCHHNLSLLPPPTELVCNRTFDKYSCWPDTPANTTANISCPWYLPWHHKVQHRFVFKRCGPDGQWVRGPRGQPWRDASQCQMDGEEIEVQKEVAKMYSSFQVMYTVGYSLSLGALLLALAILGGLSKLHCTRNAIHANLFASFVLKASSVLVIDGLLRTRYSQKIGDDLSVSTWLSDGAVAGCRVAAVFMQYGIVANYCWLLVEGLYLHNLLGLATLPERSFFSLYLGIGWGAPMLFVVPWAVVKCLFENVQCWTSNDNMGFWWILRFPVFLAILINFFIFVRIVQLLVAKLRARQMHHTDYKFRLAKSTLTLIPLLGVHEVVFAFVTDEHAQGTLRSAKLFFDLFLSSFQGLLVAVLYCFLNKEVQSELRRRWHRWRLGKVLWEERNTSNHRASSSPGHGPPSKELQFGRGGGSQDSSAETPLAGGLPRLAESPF

[4] = target: T2, human glucagon-like peptide-1 receptor; remark: listed apart in the source
[5] = target: T1, human glucose-dependent insulinotropic …; remark: listed apart in the source
human glucagon receptor [6] = target: T3, human glucagon receptor; remark: listed apart in the source

Binder | Activity against human GLP-1R (EC50 nM) [1] | Activity against human GIPR (EC50 nM) [2] | Activity against human GCGR (EC50 nM) (human glucagon receptor [3]) | Activity against human GLP-1R (EC50 nM) [4] | Activity against human GIPR (EC50 nM) [5] | Activity against human GCGR (EC50 nM) (human glucagon receptor [6])
B1 | 0.014 nM | 0.078 nM | 0.315 nM |  |  | 
B2 |  |  |  | 0.017 nM | 0.002 nM | 0.025 nM
B3 | 0.011 nM | 0.027 nM | 0.031 nM |  |  | 
B4 |  |  |  | 0.013 nM | 0.001 nM | 0.019 nM
B5 | 0.016 nM | 0.043 nM | 0.044 nM |  |  | 

— patent EP4745153A1, “GLP-1, GIP AND GCG RECEPTOR […] USE THEREOF” (Jiangsu Hengrui Pharmaceuticals Co., Ltd., priority 2023, dated 2025)
